The supplement of paper PMC9233669
This sample holds only a part of the variants without activity.

Assays:
biotinyl-Phe-oxazolone = experiment: self-aminoacylation, catalytic enhancement (BFO) (fold over background); higher = more active; k-Seq, kA / k0A0; sequences stand for … in GGGAAUGGAUCCACAUCUACGAAUUC…UUCACUGCAGACUUGACGAAGCUG
Summary of the method: (§1)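 Each biotinyl-aminoacyl-oxazolone, at 2–1250 μM, was incubated with mutagenized RNA pools (0.43 μM) carrying a 21-nt variable region. The 50 μL reactions contained HEPES/NaCl/KCl/MgCl2/CaCl2 buffer with 5% acetonitrile at pH 6.9–7.0 and ran for 90 minutes at room temperature. After streptavidin capture, RNA was measured by qPCR in triplicate and by Illumina sequencing, and catalytic enhancement was calculated as median kA over the uncatalyzed rate from a pseudo-first-order fit of per-sequence fraction reacted.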

biotinyl-Met-oxazolone = experiment: self-aminoacylation, catalytic enhancement (BMO) (fold over background); higher = more active; k-Seq, kA / k0A0; sequences stand for … in GGGAAUGGAUCCACAUCUACGAAUUC…UUCACUGCAGACUUGACGAAGCUG
Summary of the method: as §1

biotinyl-Val-oxazolone = experiment: self-aminoacylation, catalytic enhancement (BVO) (fold over background); higher = more active; k-Seq, kA / k0A0; sequences stand for … in GGGAAUGGAUCCACAUCUACGAAUUC…UUCACUGCAGACUUGACGAAGCUG
Summary of the method: as §1

biotinyl-Ile-oxazolone = experiment: self-aminoacylation, catalytic enhancement (BIO) (fold over background); higher = more active; k-Seq, kA / k0A0; sequences stand for … in GGGAAUGGAUCCACAUCUACGAAUUC…UUCACUGCAGACUUGACGAAGCUG
Summary of the method: as §1

biotinyl-Trp-oxazolone = experiment: self-aminoacylation, catalytic enhancement (BWO) (fold over background); higher = more active; k-Seq, kA / k0A0; sequences stand for … in GGGAAUGGAUCCACAUCUACGAAUUC…UUCACUGCAGACUUGACGAAGCUG
Summary of the method: as §1

biotinyl-Leu-oxazolone = experiment: self-aminoacylation, catalytic enhancement (BLO) (fold over background); higher = more active; k-Seq, kA / k0A0; sequences stand for … in GGGAAUGGAUCCACAUCUACGAAUUC…UUCACUGCAGACUUGACGAAGCUG
Summary of the method: as §1

AAGGUUGCAAAUAGUCGCAAG [Fam3.1 aminoacylation ribozyme variant]
self-aminoacylation (biotinyl-Phe-oxazolone): 1.44
self-aminoacylation (biotinyl-Met-oxazolone): 1.02
self-aminoacylation (biotinyl-Val-oxazolone): 1.08
self-aminoacylation (biotinyl-Ile-oxazolone): 1.41
self-aminoacylation (biotinyl-Trp-oxazolone): 1.66
self-aminoacylation (biotinyl-Leu-oxazolone): 1.2

CCACACGUCGAGCAAUCGGUC [Fam1B.1 aminoacylation ribozyme variant]
self-aminoacylation (biotinyl-Phe-oxazolone): 0.83
self-aminoacylation (biotinyl-Met-oxazolone): 0.959
self-aminoacylation (biotinyl-Val-oxazolone): 2.02
self-aminoacylation (biotinyl-Ile-oxazolone): 1.17
self-aminoacylation (biotinyl-Trp-oxazolone): 1.22
self-aminoacylation (biotinyl-Leu-oxazolone): 1.41

AUUCACCUAGGUGAUUGGGUG [Fam2.2 aminoacylation ribozyme variant]
self-aminoacylation (biotinyl-Phe-oxazolone): 13.2
self-aminoacylation (biotinyl-Met-oxazolone): 2.68
self-aminoacylation (biotinyl-Val-oxazolone): 2.41
self-aminoacylation (biotinyl-Ile-oxazolone): 2.17
self-aminoacylation (biotinyl-Trp-oxazolone): 2.96
self-aminoacylation (biotinyl-Leu-oxazolone): 3.06

CCACACUACAAGCAAUCGUUC [Fam1B.1 aminoacylation ribozyme variant]
self-aminoacylation (biotinyl-Phe-oxazolone): 0.644
self-aminoacylation (biotinyl-Met-oxazolone): 0.548
self-aminoacylation (biotinyl-Val-oxazolone): 0.679
self-aminoacylation (biotinyl-Ile-oxazolone): 0.643
self-aminoacylation (biotinyl-Trp-oxazolone): 0.468
self-aminoacylation (biotinyl-Leu-oxazolone): 0.54

AUUCACCUAAGUCAUAGGGUG [Fam2.2 aminoacylation ribozyme variant]
self-aminoacylation (biotinyl-Phe-oxazolone): 5.88
self-aminoacylation (biotinyl-Met-oxazolone): 1.87
self-aminoacylation (biotinyl-Val-oxazolone): 1.21
self-aminoacylation (biotinyl-Ile-oxazolone): 1.32
self-aminoacylation (biotinyl-Trp-oxazolone): 1.3
self-aminoacylation (biotinyl-Leu-oxazolone): 1.92

CUACUUCAAACAAGCGGGCUG [Fam1A.1 aminoacylation ribozyme variant]
self-aminoacylation (biotinyl-Phe-oxazolone): 0.943
self-aminoacylation (biotinyl-Met-oxazolone): 1.38
self-aminoacylation (biotinyl-Val-oxazolone): 1.41
self-aminoacylation (biotinyl-Ile-oxazolone): 1.79
self-aminoacylation (biotinyl-Trp-oxazolone): 1.88
self-aminoacylation (biotinyl-Leu-oxazolone): 1.38

CCACACUUCAAGUACUCGGUC [Fam1B.1 aminoacylation ribozyme variant]
self-aminoacylation (biotinyl-Phe-oxazolone): 0.703
self-aminoacylation (biotinyl-Met-oxazolone): 1.06
self-aminoacylation (biotinyl-Val-oxazolone): 1.09
self-aminoacylation (biotinyl-Ile-oxazolone): 1.17
self-aminoacylation (biotinyl-Trp-oxazolone): 0.789
self-aminoacylation (biotinyl-Leu-oxazolone): 0.875

CCGCACUUCAAGCAAUCGUUC [Fam1B.1 aminoacylation ribozyme variant]
self-aminoacylation (biotinyl-Phe-oxazolone): 1.26
self-aminoacylation (biotinyl-Met-oxazolone): 0.742
self-aminoacylation (biotinyl-Val-oxazolone): 0.944
self-aminoacylation (biotinyl-Ile-oxazolone): 0.8
self-aminoacylation (biotinyl-Trp-oxazolone): 0.659
self-aminoacylation (biotinyl-Leu-oxazolone): 0.688

AUUCACCUAGGGCAUCCGGUG [Fam2.2 aminoacylation ribozyme variant]
self-aminoacylation (biotinyl-Phe-oxazolone): 54.4
self-aminoacylation (biotinyl-Met-oxazolone): 10.7
self-aminoacylation (biotinyl-Val-oxazolone): 8.74
self-aminoacylation (biotinyl-Ile-oxazolone): 10.5
self-aminoacylation (biotinyl-Trp-oxazolone): 8.38
self-aminoacylation (biotinyl-Leu-oxazolone): 12.6

GAGUUUGCUAUUAGUCGCAAG [Fam3.1 aminoacylation ribozyme variant]
self-aminoacylation (biotinyl-Phe-oxazolone): 2.47
self-aminoacylation (biotinyl-Met-oxazolone): 1.17
self-aminoacylation (biotinyl-Val-oxazolone): 1.01
self-aminoacylation (biotinyl-Ile-oxazolone): 1.18
self-aminoacylation (biotinyl-Trp-oxazolone): 1.72
self-aminoacylation (biotinyl-Leu-oxazolone): 1.28

AAGUUUGCUAAUCGUCGCACG [Fam3.1 aminoacylation ribozyme variant]
self-aminoacylation (biotinyl-Phe-oxazolone): 0.692
self-aminoacylation (biotinyl-Met-oxazolone): 0.842
self-aminoacylation (biotinyl-Val-oxazolone): 0.873
self-aminoacylation (biotinyl-Ile-oxazolone): 0.983
self-aminoacylation (biotinyl-Trp-oxazolone): 0.937
self-aminoacylation (biotinyl-Leu-oxazolone): 1.16

ACACACUUCAAGCAAUCGUUC [Fam1B.1 aminoacylation ribozyme variant]
self-aminoacylation (biotinyl-Phe-oxazolone): 1.43
self-aminoacylation (biotinyl-Met-oxazolone): 0.825
self-aminoacylation (biotinyl-Val-oxazolone): 1.23
self-aminoacylation (biotinyl-Ile-oxazolone): 1.02
self-aminoacylation (biotinyl-Trp-oxazolone): 1.21
self-aminoacylation (biotinyl-Leu-oxazolone): 0.787

AUUCACCAAGGUCAUCGGGUU [Fam2.2 aminoacylation ribozyme variant]
self-aminoacylation (biotinyl-Phe-oxazolone): 17.2
self-aminoacylation (biotinyl-Met-oxazolone): 2.43
self-aminoacylation (biotinyl-Val-oxazolone): 2.59
self-aminoacylation (biotinyl-Ile-oxazolone): 2.42
self-aminoacylation (biotinyl-Trp-oxazolone): 4.16
self-aminoacylation (biotinyl-Leu-oxazolone): 2.21

AUUACCCUGGUCAUUUAGUGA [Fam2.1 aminoacylation ribozyme variant]
self-aminoacylation (biotinyl-Phe-oxazolone): 70
self-aminoacylation (biotinyl-Met-oxazolone): 11.7
self-aminoacylation (biotinyl-Val-oxazolone): 5.82
self-aminoacylation (biotinyl-Ile-oxazolone): 5.57
self-aminoacylation (biotinyl-Trp-oxazolone): 14.4
self-aminoacylation (biotinyl-Leu-oxazolone): 11.1

AAGUUUACUACUAGUCGCAAG [Fam3.1 aminoacylation ribozyme variant]
self-aminoacylation (biotinyl-Phe-oxazolone): 2.04
self-aminoacylation (biotinyl-Met-oxazolone): 1.46
self-aminoacylation (biotinyl-Val-oxazolone): 1.6
self-aminoacylation (biotinyl-Ile-oxazolone): 1.57
self-aminoacylation (biotinyl-Trp-oxazolone): 1.76
self-aminoacylation (biotinyl-Leu-oxazolone): 1.27

AUUACCCUGAUCAUCGAGUUA [Fam2.1 aminoacylation ribozyme variant]
self-aminoacylation (biotinyl-Phe-oxazolone): 0.549
self-aminoacylation (biotinyl-Met-oxazolone): 0.824
self-aminoacylation (biotinyl-Val-oxazolone): 1.11
self-aminoacylation (biotinyl-Ile-oxazolone): 1.02
self-aminoacylation (biotinyl-Trp-oxazolone): 0.61
self-aminoacylation (biotinyl-Leu-oxazolone): 0.958

AUUCAUAUAGGUCAUCGGGUG [Fam2.2 aminoacylation ribozyme variant]
self-aminoacylation (biotinyl-Phe-oxazolone): 34.2
self-aminoacylation (biotinyl-Met-oxazolone): 4.9
self-aminoacylation (biotinyl-Val-oxazolone): 3.28
self-aminoacylation (biotinyl-Ile-oxazolone): 3.42
self-aminoacylation (biotinyl-Trp-oxazolone): 5.78
self-aminoacylation (biotinyl-Leu-oxazolone): 6.04

CUACAACAAACAAUCGGUCUG [Fam1A.1 aminoacylation ribozyme variant]
self-aminoacylation (biotinyl-Phe-oxazolone): 0.946
self-aminoacylation (biotinyl-Met-oxazolone): 0.496
self-aminoacylation (biotinyl-Val-oxazolone): 0.642
self-aminoacylation (biotinyl-Ile-oxazolone): 0.646
self-aminoacylation (biotinyl-Trp-oxazolone): 0.491
self-aminoacylation (biotinyl-Leu-oxazolone): 0.743

CCACACUUCAAGCGAUCGCUC [Fam1B.1 aminoacylation ribozyme variant]
self-aminoacylation (biotinyl-Phe-oxazolone): 4.68
self-aminoacylation (biotinyl-Met-oxazolone): 1.85
self-aminoacylation (biotinyl-Val-oxazolone): 2.03
self-aminoacylation (biotinyl-Ile-oxazolone): 2.62
self-aminoacylation (biotinyl-Trp-oxazolone): 2.83
self-aminoacylation (biotinyl-Leu-oxazolone): 2.28

CUACUUCAAACAAUCAGCCUG [Fam1A.1 aminoacylation ribozyme variant]
self-aminoacylation (biotinyl-Phe-oxazolone): 21
self-aminoacylation (biotinyl-Met-oxazolone): 0.824
self-aminoacylation (biotinyl-Val-oxazolone): 1.17
self-aminoacylation (biotinyl-Ile-oxazolone): 0.99
self-aminoacylation (biotinyl-Trp-oxazolone): 9.56
self-aminoacylation (biotinyl-Leu-oxazolone): 1.01

AUUAGACUGGUCAUCGAGUGA [Fam2.1 aminoacylation ribozyme variant]
self-aminoacylation (biotinyl-Phe-oxazolone): 7.88
self-aminoacylation (biotinyl-Met-oxazolone): 4.4
self-aminoacylation (biotinyl-Val-oxazolone): 2.56
self-aminoacylation (biotinyl-Ile-oxazolone): 3
self-aminoacylation (biotinyl-Trp-oxazolone): 4.81
self-aminoacylation (biotinyl-Leu-oxazolone): 3.73

CCACACUUCAAUCAAUCCGUC [Fam1B.1 aminoacylation ribozyme variant]
self-aminoacylation (biotinyl-Phe-oxazolone): 0.663
self-aminoacylation (biotinyl-Met-oxazolone): 0.641
self-aminoacylation (biotinyl-Val-oxazolone): 0.823
self-aminoacylation (biotinyl-Ile-oxazolone): 0.655
self-aminoacylation (biotinyl-Trp-oxazolone): 0.611
self-aminoacylation (biotinyl-Leu-oxazolone): 0.61

AUUACCCAGGUCAUCGAGUGG [Fam2.1 aminoacylation ribozyme variant]
self-aminoacylation (biotinyl-Phe-oxazolone): 0.937
self-aminoacylation (biotinyl-Met-oxazolone): 1.07
self-aminoacylation (biotinyl-Val-oxazolone): 1.22
self-aminoacylation (biotinyl-Ile-oxazolone): 1.14
self-aminoacylation (biotinyl-Trp-oxazolone): 0.735
self-aminoacylation (biotinyl-Leu-oxazolone): 1.3
